According to the supplement of paper PMC11316812:
± gives the standard deviation of the averaged measurements.

Legend:
hTERT-HMEC = experiment: percentage of EdU-negative (G0-arrested) nuclei per well, 72 h; higher = more G0 arrest; details: reference: sequence is the full UniProt precursor, the tested protein was the secreted form or ectodomain
MCF7 = experiment: as above; details: reference: sequence is the full UniProt precursor, the tested protein was the secreted form or ectodomain
[1] = protein concentration 0.03125 µM
[2] = protein concentration 0.3125 µM
[3] = protein concentration 0.0225 µM
[4] = protein concentration 0.00714286 µM
[5] = protein concentration 0.0714286 µM
[6] = protein concentration 0.01125 µM
[7] = protein concentration 0.1125 µM
[8] = protein concentration 0.00828571 µM
[9] = protein concentration 0.0828571 µM
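Also: secreted proteins added to cultured cells, EdU pulse at the end, nuclei found by Hoechst imaging, EdU status from nuclear versus surrounding ring intensity ratio, PBS as neutral control.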

MGRGWGFLFGLLGAVWLLSSGHGEEQPPETAAQRCFCQVSGYLDDCTCDVETIDRFNNYRLFPRLQKLLESDYFRYYKVNLKRPCPFWNDISQCGRRDCAVKPCQSDEVPDGIKSASYKYSEEANNLIEECEQAERLGAVDESLSEETQKAVLQWTKHDDSSDNFCEADDIQSPEAEYVDLLLNPERYTGYKGPDAWKIWNVIYEENCFKPQTIKRPLNPLASGQGTSEENTFYSWLEGLCVEKRAFYRLISGLHASINVHLSARYLLQETWLEKKWGHNITEFQQRFDGILTEGEGPRRLKNLYFLYLIELRALSKVLPFFERPDFQLFTGNKIQDEENKMLLLEILHEIKSFPLHFDENSFFAGDKKEAHKLKEDFRLHFRNISRIMDCVGCFKCRLWGKLQTQGLGTALKILFSEKLIANMPESGPSYEFHLTRQEIVSLFNAFGRISTSVKELENFRNLLQNIH [Q96HE7]
percentage of EdU-negative (hTERT-HMEC; [1]): 6.24 ± 0.39%
percentage of EdU-negative (hTERT-HMEC; [2]): 6.47 ± 0.033%
percentage of EdU-negative (MCF7; [1]): 26.32 ± 0.034%
percentage of EdU-negative (MCF7; [2]): 25.7 ± 0.52%

MGRPRPRAAKTWMFLLLLGGAWAGHSRAQEDKVLGGHECQPHSQPWQAALFQGQQLLCGGVLVGGNWVLTAAHCKKPKYTVRLGDHSLQNKDGPEQEIPVVQSIPHPCYNSSDVEDHNHDLMLLQLRDQASLGSKVKPISLADHCTQPGQKCTVSGWGTVTSPRENFPDTLNCAEVKIFPQKKCEDAYPGQITDGMVCAGSSKGADTCQGDSGGPLVCDGALQGITSWGSDPCGRSDKPGVYTNICRYLDWIKKIIGSKG
percentage of EdU-negative (hTERT-HMEC; [3]): 4.99 ± 0.28%
percentage of EdU-negative (hTERT-HMEC; protein concentration 0.225 µM): 5.28 ± 0.5%
percentage of EdU-negative (MCF7; [3]): 26.4 ± 2.5%
percentage of EdU-negative (MCF7; protein concentration 0.225 µM): 24.6 ± 0.69%

MGRRDAQLLAALLVLGLCALAGSEKPSPCQCSRLSPHNRTNCGFPGITSDQCFDNGCCFDSSVTGVPWCFHPLPKQESDQCVMEVSDRRNCGYPGISPEECASRKCCFSNFIFEVPWCFFPKSVEDCHY
percentage of EdU-negative (hTERT-HMEC; [3]): 5.31 ± 1.5%
percentage of EdU-negative (hTERT-HMEC; protein concentration 0.225 µM): 5.92 ± 0.79%
percentage of EdU-negative (MCF7; [3]): 23 ± 1.6%
percentage of EdU-negative (MCF7; protein concentration 0.225 µM): 24.8 ± 1.3%

MGSGAGELGRAERLPVLFLFLLSLFCPALCEQIRYRIPEEMPKGSVVGNLATDLGFSVQELPTRKLRVSSEKPYFTVSAESGELLVSSRLDREEICGKKPACALEFEAVAENPLNFYHVNVEIEDINDHTPKFTQNSFELQISESAQPGTRFILEVAEDADIGLNSLQKYKLSLNPSFSLIIKEKQDGSKYPELALEKTLDREQQSYHRLVLTALDGGHPPLSGTTELRIQVTDANDNPPVFNRDVYRVSLRENVPPGTTVLQVSATDQDEGINSEITYSFYRTGQIFSLNSKSGEITTQKKLDFEETKEYSMVVEGRDGGGLVAQCTVEINIQDENDNSPEVTFHSLLEMILENAVPGTLIALIKIHDQDSGENGEVNCQLQGEVPFKIISSSKNSYKLVTDGTLDREQTPEYNVTITATDRGKPPLSSSISVILHIRDVNDNAPVFHQASYLVSVPENNPPGASIAQVCASDLDLGLNGQVSYSIMASDLEPLALASYVSMSAQSGVVFAQRAFDYEQLRTFELTLQARDQGSPALSANVSLRVLVGDRNDNAPRVLYPALGPDGSALFDMVPRAAEPGYLVTKVVAVDADSGHNAWLSYHVLQASEPGLFSLGLRTGEVRTARALGDRDAARQRLLVAVRDGGQPPLSATATLHLVFADSLQEVLPDITDRPVPSDPQAELQFYLVVALALISVLFLLAVILAVALRLRRSSSPAAWSCFQPGLCVKSGPVVPPNYSQGTLPYSYNLCVAHTGKTEFNFLKCSEQLSSGQDILCGDSSGALFPLCNSSESTSHPELQAPPNTDWRFSQAQRPGTSGSQNGDDTGTWPNNQFDTEMLQAMILASASEAADGSSTLGGGAGTMGLSARYGPQFTLQHVPDYRQNVYIPGSNATLTNAAGKRDGKAPAGGNGNKKKSGKKEKK [Q9Y5G0]
percentage of EdU-negative (hTERT-HMEC; [4]): 5.16 ± 0.12%
percentage of EdU-negative (hTERT-HMEC; [5]): 11.4 ± 4.3%
percentage of EdU-negative (MCF7; [4]): 26.7 ± 4%
percentage of EdU-negative (MCF7; [5]): 34.45 ± 0.24%

MGSGPRGALSLLLLLLAPPSRPAAGCPAPCSCAGTLVDCGRRGLTWASLPTAFPVDTTELVLTGNNLTALPPGLLDALPALRTAHLGANPWRCDCRLVPLRAWLAGRPERAPYRDLRCVAPPALRGRLLPYLAEDELRAACAPGPLCWGALAAQLALLGLGLLHALLLVLLLCRLRRLRARARARAAARLSLTDPLVAERAGTDES
percentage of EdU-negative (hTERT-HMEC; [3]): 5.41 ± 0.22%
percentage of EdU-negative (hTERT-HMEC; protein concentration 0.225 µM): 6.21 ± 0.79%
percentage of EdU-negative (MCF7; [3]): 23.5 ± 3%
percentage of EdU-negative (MCF7; protein concentration 0.225 µM): 27.189 ± 0.018%

MGSGRRALSAVPAVLLVLTLPGLPVWAQNDTEPIVLEGKCLVVCDSNPATDSKGSSSSPLGISVRAANSKVAFSAVRSTNHEPSEMSNKTRIIYFDQILVNVGNFFTLESVFVAPRKGIYSFSFHVIKVYQSQTIQVNLMLNGKPVISAFAGDKDVTREAATNGVLLYLDKEDKVYLKLEKGNLVGGWQYSTFSGFLVFPL [Q9NTU7]
percentage of EdU-negative (hTERT-HMEC; [3]): 5.12 ± 0.27%
percentage of EdU-negative (hTERT-HMEC; protein concentration 0.225 µM): 4.5 ± 0.36%
percentage of EdU-negative (MCF7; [3]): 23.4 ± 2%
percentage of EdU-negative (MCF7; protein concentration 0.225 µM): 25.2 ± 2.2%

MGSPRSALSCLLLHLLVLCLQAQEGPGRGPALGRELASLFRAGREPQGVSQQHVREQSLVTDQLSRRLIRTYQLYSRTSGKHVQVLANKRINAMAEDGDPFAKLIVETDTFGSRVRVRGAETGLYICMNKKGKLIAKSNGKGKDCVFTEIVLENNYTALQNAKYEGWYMAFTRKGRPRKGSKTRQHQREVHFMKRLPRGHHTTEQSLRFEFLNYPPFTRSLRGSQRTWAPEPR
percentage of EdU-negative (hTERT-HMEC; [6]): 5.64 ± 0.65%
percentage of EdU-negative (hTERT-HMEC; [7]): 11 ± 1.7%
percentage of EdU-negative (MCF7; [6]): 25.1 ± 1.4%
percentage of EdU-negative (MCF7; [7]): 25.58 ± 0.037%

MGSRGQGLLLAYCLLLAFASGLVLSRVPHVQGEQQEWEGTEELPSPPDHAERAEEQHEKYRPSQDQGLPASRCLRCCDPGTSMYPATAVPQINITILKGEKGDRGDRGLQGKYGKTGSAGARGHTGPKGQKGSMGAPGERCKSHYAAFSVGRKKPMHSNHYYQTVIFDTEFVNLYDHFNMFTGKFYCYVPGLYFFSLNVHTWNQKETYLHIMKNEEEVVILFAQVGDRSIMQSQSLMLELREQDQVWVRLYKGERENAIFSEELDTYITFSGYLVKHATEP [Q9BXJ1]
percentage of EdU-negative (hTERT-HMEC; [3]): 4.31 ± 0.1%
percentage of EdU-negative (hTERT-HMEC; protein concentration 0.225 µM): 4.49 ± 0.49%
percentage of EdU-negative (MCF7; [3]): 24.69 ± 0.17%
percentage of EdU-negative (MCF7; protein concentration 0.225 µM): 23.7 ± 2.1%

MGSSSFLVLMVSLVLVTLVAVEGVKEGIEKAGVCPADNVRCFKSDPPQCHTDQDCLGERKCCYLHCGFKCVIPVKELEEGGNKDEDVSRPYPEPGWEAKCPGSSSTRCPQK [Q8WWY7]
percentage of EdU-negative (hTERT-HMEC; [1]): 5.3 ± 0.5%
percentage of EdU-negative (hTERT-HMEC; [2]): 5.28 ± 0.67%
percentage of EdU-negative (MCF7; [1]): 26.5 ± 3.1%
percentage of EdU-negative (MCF7; [2]): 24 ± 2.8%

MGTATRRKPHLLLVAAVALVSSSAWSSALGSQTTFGPVFEDQPLSVLFPEESTEEQVLLACRARASPPATYRWKMNGTEMKLEPGSRHQLVGGNLVIMNPTKAQDAGVYQCLASNPVGTVVSREAILRFGFLQEFSKEERDPVKAHEGWGVMLPCNPPAHYPGLSYRWLLNEFPNFIPTDGRHFVSQTTGNLYIARTNASDLGNYSCLATSHMDFSTKSVFSKFAQLNLAAEDTRLFAPSIKARFPAETYALVGQQVTLECFAFGNPVPRIKWRKVDGSLSPQWTTAEPTLQIPSVSFEDEGTYECEAENSKGRDTVQGRIIVQAQPEWLKVISDTEADIGSNLRWGCAAAGKPRPTVRWLRNGEPLASQNRVEVLAGDLRFSKLSLEDSGMYQCVAENKHGTIYASAELAVQALAPDFRLNPVRRLIPAARGGEILIPCQPRAAPKAVVLWSKGTEILVNSSRVTVTPDGTLIIRNISRSDEGKYTCFAENFMGKANSTGILSVRDATKITLAPSSADINLGDNLTLQCHASHDPTMDLTFTWTLDDFPIDFDKPGGHYRRTNVKETIGDLTILNAQLRHGGKYTCMAQTVVDSASKEATVLVRGPPGPPGGVVVRDIGDTTIQLSWSRGFDNHSPIAKYTLQARTPPAGKWKQVRTNPANIEGNAETAQVLGLTPWMDYEFRVIASNILGTGEPSGPSSKIRTREAAPSVAPSGLSGGGGAPGELIVNWTPMSREYQNGDGFGYLLSFRRQGSTHWQTARVPGADAQYFVYSNESVRPYTPFEVKIRSYNRRGDGPESLTALVYSAEEEPRVAPTKVWAKGVSSSEMNVTWEPVQQDMNGILLGYEIRYWKAGDKEAAADRVRTAGLDTSARVSGLHPNTKYHVTVRAYNRAGTGPASPSANATTMKPPPRRPPGNISWTFSSSSLSIKWDPVVPFRNESAVTGYKMLYQNDLHLTPTLHLTGKNWIEIPVPEDIGHALVQIRTTGPGGDGIPAEVHIVRNGGTSMMVENMAVRPAPHPGTVISHSVAMLILIGSLEL
percentage of EdU-negative (hTERT-HMEC; [8]): 5.61 ± 0.96%
percentage of EdU-negative (hTERT-HMEC; [9]): 5.98 ± 2%
percentage of EdU-negative (MCF7; [8]): 24.5 ± 3%
percentage of EdU-negative (MCF7; [9]): 25.1 ± 0.57%

MGTKAQVERKLLCLFILAILLCSLALGSVTVHSSEPEVRIPENNPVKLSCAYSGFSSPRVEWKFDQGDTTRLVCYNNKITASYEDRVTFLPTGITFKSVTREDTGTYTCMVSEEGGNSYGEVKVKLIVLVPPSKPTVNIPSSATIGNRAVLTCSEQDGSPPSEYTWFKDGIVMPTNPKSTRAFSNSSYVLNPTTGELVFDPLSASDTGEYSCEARNGYGTPMTSNAVRMEAVERNVGVIVAAVLVTLILLGILVFGIWFAYSRGHFDRTKKGTSSKKVIYSQPSARSEGEFKQTSSFLV [Q9Y624]
percentage of EdU-negative (hTERT-HMEC; [3]): 4.79 ± 0.22%
percentage of EdU-negative (hTERT-HMEC; protein concentration 0.225 µM): 5.1 ± 1.2%
percentage of EdU-negative (MCF7; [3]): 24.4 ± 0.49%
percentage of EdU-negative (MCF7; protein concentration 0.225 µM): 25.6 ± 5.5%
